Laboratory results published in paper PMC8809517, “Cofactor-independent RNA editing by a synthetic S-type PPR protein”.

Assays:
Experiment in all cases: high-throughput RNA pulldown from lysate on Ni-NTA beads; HRP: 50 mM Tris pH 8, 150 mM NaCl, 1 mM beta-mercaptoethanol, 50 ug/ml BSA, 3 ug/ml yeast RNA, 0.5% heparin; ITC and FP: Tris pH 8, 200 mM KCl, 5% glycerol; MST: 50 mM Tris pH 8, 200 mM NaCl, 1 mM DTT, BSA, heparin, 0.05% Tween 20
Conditions in all cases: tags: N-terminal His-eGFP
[1] = molecular target: T1, GFP-9S library array, motif 4 ND N98I;D124C (synthetic construct, N98I;D124C)
T1 chain: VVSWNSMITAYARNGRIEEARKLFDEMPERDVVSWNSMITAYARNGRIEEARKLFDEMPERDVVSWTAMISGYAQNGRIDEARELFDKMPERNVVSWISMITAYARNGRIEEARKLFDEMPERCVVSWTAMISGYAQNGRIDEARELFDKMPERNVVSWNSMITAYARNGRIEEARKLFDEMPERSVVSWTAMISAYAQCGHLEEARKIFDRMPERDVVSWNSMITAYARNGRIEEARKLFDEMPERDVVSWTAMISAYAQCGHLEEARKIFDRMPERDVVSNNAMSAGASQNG

[2] = molecular target: T2, GFP-9S library array, motif 4 ND N98C;D124Y (synthetic construct, N98C;D124Y)
T2 chain: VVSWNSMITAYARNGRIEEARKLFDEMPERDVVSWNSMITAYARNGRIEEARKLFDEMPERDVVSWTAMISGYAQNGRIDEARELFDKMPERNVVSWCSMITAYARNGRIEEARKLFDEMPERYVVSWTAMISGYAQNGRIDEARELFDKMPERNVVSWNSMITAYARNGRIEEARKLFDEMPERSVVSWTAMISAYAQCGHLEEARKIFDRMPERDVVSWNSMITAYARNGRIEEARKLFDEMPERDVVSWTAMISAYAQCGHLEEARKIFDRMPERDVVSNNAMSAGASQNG

[3] = molecular target: T3, GFP-9S library array, motif 4 ND N98C (synthetic construct, N98C)
T3 chain: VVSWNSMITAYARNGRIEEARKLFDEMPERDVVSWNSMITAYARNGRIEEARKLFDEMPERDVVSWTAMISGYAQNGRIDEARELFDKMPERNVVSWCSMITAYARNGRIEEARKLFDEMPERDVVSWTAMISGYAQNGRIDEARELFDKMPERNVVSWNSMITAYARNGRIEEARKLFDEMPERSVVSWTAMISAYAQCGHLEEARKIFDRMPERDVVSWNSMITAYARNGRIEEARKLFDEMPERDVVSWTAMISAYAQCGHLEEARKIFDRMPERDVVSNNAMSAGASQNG

[4] = molecular target: T4, GFP-9S library array, motif 4 ND N98L;D124H (synthetic construct, N98L;D124H)
T4 chain: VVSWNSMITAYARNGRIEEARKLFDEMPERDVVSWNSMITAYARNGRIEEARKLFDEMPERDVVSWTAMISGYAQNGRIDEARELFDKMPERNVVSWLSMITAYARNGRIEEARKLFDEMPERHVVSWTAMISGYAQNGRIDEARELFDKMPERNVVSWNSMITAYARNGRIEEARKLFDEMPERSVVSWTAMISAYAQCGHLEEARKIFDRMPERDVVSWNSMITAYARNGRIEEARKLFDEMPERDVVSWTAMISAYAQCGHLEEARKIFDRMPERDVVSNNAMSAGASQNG

[5] = molecular target: T5, GFP-9S library array, motif 4 ND N98Y;D124G (synthetic construct, N98Y;D124G)
T5 chain: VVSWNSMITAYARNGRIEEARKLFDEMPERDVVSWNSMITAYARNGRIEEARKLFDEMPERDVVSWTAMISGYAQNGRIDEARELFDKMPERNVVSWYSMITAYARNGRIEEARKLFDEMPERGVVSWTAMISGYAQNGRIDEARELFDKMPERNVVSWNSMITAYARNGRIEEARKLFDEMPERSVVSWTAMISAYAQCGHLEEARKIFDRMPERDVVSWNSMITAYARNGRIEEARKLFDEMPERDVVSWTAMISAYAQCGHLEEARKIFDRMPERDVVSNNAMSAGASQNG

## AUUAGACGUGA (ssRNA) [Cy5-rpoA-G]
[1]; label: 5' Cy5
  Kd: 90.6 nM
[2]; label: 5' Cy5
  Kd: 72.3 nM
[3]; label: 5' Cy5
  Kd: 620 nM
[4]; label: 5' Cy5
  Kd: 196 nM
[5]; label: 5' Cy5
  Kd: 177 nM

## AUUAUACGUGA (ssRNA) [IR-rpoA-U]
[1]; label: 5' IRDye 800CW
  Kd: 32.9 nM
[2]; label: 5' IRDye 800CW
  Kd: 94.2 nM
[3]; label: 5' IRDye 800CW
  Kd: 651 nM
[4]; label: 5' IRDye 800CW
  Kd: 125 nM
[5]; label: 5' IRDye 800CW
  Kd: 211 nM

## AUUACACGUGA (ssRNA) [Cy5-rpoA]
[1]; label: 5' Cy5
  Kd: 182 nM
[2]; label: 5' Cy5
  Kd: 56.9 nM
[3]; label: 5' Cy5
  Kd: 491 nM
[4]; label: 5' Cy5
  Kd: 179 nM
[5]; label: 5' Cy5
  Kd: 183 nM

## AUUAAACGUGA (ssRNA) [IR-rpoA-A]
[1]; label: 5' IRDye 800CW
  Kd: 42.5 nM
[2]; label: 5' IRDye 800CW
  Kd: 217 nM
[3]; label: 5' IRDye 800CW
  Kd: 1290 nM
[4]; label: 5' IRDye 800CW
  Kd: 399 nM
[5]; label: 5' IRDye 800CW
  Kd: 567 nM
